Assay results: article PMC5318444

Experiments:
[1] = biological target: T1, ArcA (Escherichia coli (uropathogenic CFT073?)) (UniProt P0A9Q2); assay: EMSA; conditions: 10 mM Tris pH 7.5, 1 mM EDTA, 1 mM DTT, 50 mM KCl, 50 mM MgCl2, 1 ug/ml BSA; 10 nM DNA, protein 0-240 nM; 30 min room temperature (ArcA, RpoN) …
T1 sequence: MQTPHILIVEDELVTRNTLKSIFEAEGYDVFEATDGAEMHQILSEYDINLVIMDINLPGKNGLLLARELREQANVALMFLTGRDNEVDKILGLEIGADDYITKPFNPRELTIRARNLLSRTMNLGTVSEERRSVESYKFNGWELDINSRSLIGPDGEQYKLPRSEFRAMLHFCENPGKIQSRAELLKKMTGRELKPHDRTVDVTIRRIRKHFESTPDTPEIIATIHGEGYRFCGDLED

[2] = tested on: RpoN (sigma54) (Escherichia coli (CFT073?)), ORF:8ae15e91; assay: EMSA; conditions: 10 mM Tris pH 7.5, 1 mM EDTA, 1 mM DTT, 50 mM KCl, 50 mM MgCl2, 1 ug/ml BSA; 10 nM DNA, protein 0-240 nM; 30 min room temperature (ArcA, RpoN) …

Row | Sequence | binding [1] | binding [2]
1 | ATCTGTGTGGTAAGAGAATCACCTTTTATTTACTGTGCGGAAAACCGCGCACAAAATAAAAAGAATAAATAATAAAATCATTAAATAACAAAGCGTTATTAAAAAATTAAAGATGGCATAGCTCCTGCAATAGCCAGGCAGGTTTTTTATTTTTCACAATGAGGTGAATATGTCATCAATATCCCATGGCGCACCACAAAAGCGTCGAATTATCCCTAATCCCGGCCTGTGGTT (double strand) [c5038 promoter probe] | no binding | binds
2 | TGCGCAATTGTACTTATTGCATTTTTCTCTTCGAGGAATTACCCAGTTTCATCATCCCATTTTATTTTGCGAGCGAGCGCACACTTGTGAATTATCTCAATAGCAGTGTGAAATAACATAATTGAGCAACTGAAAGGGAGTGCCCAATATTACGACATCATCCATCACCCGCGGCATTACCTGATTATGGAGTTCAATATGCAAGCCT (double strand) [xylA promoter probe] | – | no binding
3 | ATGTTAAGCATGATAACGCCTTTTAGGGGCAATTTAAAAGTTGGCACAGATTTCGCTTTATCTTTTTTACGGCGACACGGCCCATTTAATTGCAGATTTCGTTACCACGACGACAATGACCAATCCAGGAGAGTTAAAGTATGTCCGCTGAACACGTACTGACGATGCTGAACGAGCACGAAGTGAAGTTTGTTG (double strand) [glnA promoter probe] | – | binds
4 | GGCGCGTCTTATACTCCCACATAAGCCAGATTCAACAGCGAATACGTCTTCCCCAAATTGCCCACTTCCATACTTCCTCCTTACCAGAAATCTATCCTTAAGCTCCTTAATAACCATTTTCCTGCTAACTAAATTCATGGTTAAGGTTGCATAATGATATGCAACAAATGTATAACATTTTTCTTACCAAAAAATAAACAAAAGCGACCGACAAAAGCATTGGATTACGGCAGGAG (double strand) [kgtP promoter probe] | binds | –
